Results taken from article PMC5529482, “Novel strategies to mimic transmembrane tumor necrosis factor-dependent activation of tumor necrosis factor receptor 2” (Scientific Reports, 2017).

Target: T1, mouse TNFR2-Fc fusion protein (mouse, UniProt P25119 23-258)
T1 construct: mouse TNF receptor 2 (TNFR2)
T1 sequence (looked up): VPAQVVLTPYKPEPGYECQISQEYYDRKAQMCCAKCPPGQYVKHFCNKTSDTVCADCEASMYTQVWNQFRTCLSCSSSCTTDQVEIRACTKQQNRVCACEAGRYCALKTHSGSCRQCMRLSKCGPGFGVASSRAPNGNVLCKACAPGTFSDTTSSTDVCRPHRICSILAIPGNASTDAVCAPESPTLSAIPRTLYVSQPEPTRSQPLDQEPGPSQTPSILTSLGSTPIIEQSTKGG
Experiment: ELISA; TNFR1-Fc or TNFR2-Fc coated at 1 µg/ml in PBS, 4 °C overnight; TNF muteins in 2% skim milk powder in PBS, 1 h RT; detected with anti-TNF clone F6C5 and HRP anti-mouse IgG
Details: both partners purified

B1: GCN4-sc-mTNFR2 (ligand)
chain: not shown
EC50: 45 pM
